Data taken from patent US20110300561.

Tests used:
[1] = target: T1, His-Leu
T1 chain: HL

[2] = target: T2, Lys-Phe
T2 chain: KF

[3] = target: T3, Ser-His
T3 chain: SH

[4] = target: T4, Arg-Ile
T4 chain: RI

[5] = target: T5, Ala-Ser
T5 chain: AS

[6] = target: T6, Asp-Lys
T6 chain: DK

[7] = target: T7, Arg-Leu
T7 chain: RL

[8] = target: T8, Gly-Lys
T8 chain: GK

[9] = target: T9, Phe-Val
T9 chain: FV

[10] = target: T10, Arg-Ala
T10 chain: RA

[11] = target: T11, Arg-Val
T11 chain: RV

[12] = target: T12, Gly-Ser
T12 chain: GS

[13] = target: T13, Lys-Leu
T13 chain: KL

B1: Staphylococcus aureus N-Succinyl-L,L-DAP Desuccinylase (DapE) (protein)
chain: MWKEKVQQYEDQIINDLKGLLAIESVRDDAKASEDAPVGPGPRKALDYMYEIAHRDGFTTHDVDHIAGRIEAGKGNDVLGILCHVDVVPAGDGWDSNPFEPVVTEDAIIARGTLDDKGPTIAAYYAIKILEDMNVDWKKRIHMIIGTDEESDWKCTDRYFKTEEMPTLGFAPDAEFPCIHGEKGITTFDLVQNKLTEDQDEPDYELITFKSGERYNMVPDHAEARVLVKENMTDVIQDFEYFLEQNHLQGDSTVDSGILVLTVEGKAVHGMDPSIGVNAGLYLLKFLASLNLDNNAQAFVAFSNRYLFNSDFGEKMGMKFHTDVMGDVTTNIGVITYDNENAGLFGINLRYPEGFEFEKAMDRFANEIQQYGFEVKLGKVQPPHYVDKNDPFVQKLVTAYRNQTNDMTEPYTIGGGTYARNLDKGVAFGAMFSDSEDLMHQKNEYITKKQLFNATSIYLEAIYSLCVEE
B1 was tested. Which “Activity (S. aureus DapE Qualitative Dipeptidase Activity, TLC assay)” value (“Activity” for short) [1] did it give?
Its value is “+”.

And the “Activity” value [2]?
The value was “++”.

And the “Activity” value [3]?
Its value is “++”.

And the “Activity” value [4]?
The value was “+++”.

What about the “Activity” value [5] of the same protein?
The value was “+”.

And the “Activity” value [6]?
The value was “+”.

And the “Activity” value [7]?
Its value is “+++”.

What about the “Activity” value [8] of the same protein?
Its value is “+”.

What about the “Activity” value [9] of the same protein?
Its value is “+++”.

And the “Activity” value [10]?
Its value is “+++”.

What about the “Activity” value [11] of the same protein?
The value was “+++”.

And the “Activity” value [12]?
The value was “+”.

And the “Activity” value [13]?
The value was “++”.
